The source of these data is PMC9706586 (Theranostics, 2022).

Test in all cases: SPR; Biacore T200, CM5 chip with immobilised anti-His antibody, 20 °C; His-tagged receptor or antigen captured; serial dilutions of anti-CD20 X-body, IgG or IgA injected (120 s binding, 240 s dissociation, 30 µL/min); 1:1 binding kinetic model or steady-state affinity model
Holding throughout (conditions): both partners purified
On the technique in general: Surface plasmon resonance follows binding to a sensor surface in real time, without labels.

The target of one experiment is T1, FcγRIIb (human, UniProt P31994 43-217).
T1 construct: human FcγRIIb, extracellular domain; source: HEK293F, secreted, purified (HisTrap HP); not shown: His6, C-terminal, kept
T1 sequence (looked up): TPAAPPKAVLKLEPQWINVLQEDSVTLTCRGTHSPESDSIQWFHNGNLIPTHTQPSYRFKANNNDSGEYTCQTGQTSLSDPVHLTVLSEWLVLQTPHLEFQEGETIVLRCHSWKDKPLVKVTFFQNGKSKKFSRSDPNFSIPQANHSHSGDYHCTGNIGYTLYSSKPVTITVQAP

A further experiment concerns the target T2, FcγRIIIa^F158 (human, UniProt P08637 17-208).
T2 construct: source: HEK293F, secreted, purified (HisTrap HP); not shown: His6, C-terminal, kept

The target in a further experiment is T3, FcγRIIa^H131 (human, UniProt P12318 34-217).
T3 construct: The methods name FcγRIIa only; source: HEK293F, secreted, purified (HisTrap HP); not shown: His6, C-terminal, kept
T3 sequence (looked up): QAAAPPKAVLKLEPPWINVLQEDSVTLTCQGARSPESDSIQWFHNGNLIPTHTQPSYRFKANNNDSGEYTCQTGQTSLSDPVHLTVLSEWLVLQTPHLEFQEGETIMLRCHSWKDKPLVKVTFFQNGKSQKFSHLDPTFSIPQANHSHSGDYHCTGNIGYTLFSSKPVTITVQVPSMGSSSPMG

In the next experiment the target is T4, CD20 (human, UniProt P11836 1-297).
T4 construct: CD20, the antigen of rituximab; His-tagged, captured on the anti-His chip; also called antigen CD20; hCD20
T4 sequence (looked up): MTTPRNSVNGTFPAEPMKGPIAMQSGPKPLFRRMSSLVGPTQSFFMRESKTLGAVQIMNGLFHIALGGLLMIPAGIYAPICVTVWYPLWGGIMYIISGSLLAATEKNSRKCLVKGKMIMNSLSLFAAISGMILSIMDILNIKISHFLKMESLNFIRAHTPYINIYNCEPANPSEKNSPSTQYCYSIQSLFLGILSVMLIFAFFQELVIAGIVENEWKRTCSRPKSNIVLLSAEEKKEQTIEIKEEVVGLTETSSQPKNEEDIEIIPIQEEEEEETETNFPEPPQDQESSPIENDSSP

T2 sequence (P08637 17-208): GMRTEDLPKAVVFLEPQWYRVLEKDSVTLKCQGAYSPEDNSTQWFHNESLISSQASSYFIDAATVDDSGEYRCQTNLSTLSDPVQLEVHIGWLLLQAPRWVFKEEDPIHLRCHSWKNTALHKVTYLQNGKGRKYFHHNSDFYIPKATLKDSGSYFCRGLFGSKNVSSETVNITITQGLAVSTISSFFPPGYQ

B1: Rituximab X-body (antibody, human IgG1, kappa)
heavy: not shown
chain: QIVLSQSPAILSASPGEKVTMTCRASSSVSYIHWFQQKPGSSPKPWIYATSNLASGVPVRFSGSGSGTSYSLTISRVEAEDAATYYCQQWTSNPPTFGGGTKLEIKRTVAAPSVFIFPPSDEQLKSGTASVVCLLNNFYPREAKVQWKVDNALQSGNSQESVTEQDSKDSTYSLSSTLTLSKADYEKHKVYACEVTHQGLSSPVTKSFNRGECGGGGSGGGGSGGGGSGGGGSGGGGSGGGGSVPPPPPCCHPRLSLHRPALEDLLLGSEANLTCTLTGLRDASGATFTWTPSSGKSAVQGPPERDLCGCYSVSSVLPGCAQPWNHGETFTCTAAHPELKTPLTANITKSGNTFRPEVHLLPPPSEELALNELVTLTCLARGFSPKDVLVRWLQGSQELPREKYLTWASRQEPSQGTTTYAVTSILRVAAEDWKKGETFSCMVGHEALPLAFTQKTIDRMAGK
notes: 6×G4S linker; IgA2 Fc (hinge, CH2, CH3) without the tailpiece region; Tetramer of two heavy chains and two chimeric chains: two Fabs, one IgG1 Fc, one IgA2 Fc; also called anti-CD20 X-body; anti-human CD20 X-body with 6×G4S linker; source: HEK293F, transfected (pTT5), purified (HiTrap Protein A, Superdex 200 Increase); copies: 2 + 2
As a reminder, the Kd is the free concentration of one partner at which half of the binding sites on the other are occupied at equilibrium, for simple one-to-one binding. Read a low Kd as higher affinity. As for B1, the Kd with FcγRIIb was found to be 0.00422 nM; with FcγRIIIa^F158 it was 0.0216 nM; with FcγRIIa^H131, 0.0364 nM; with CD20, 8.04 nM.
